This is an account of results in article doi:10.1101/199034 (bioRxiv, 2017).

Data set [1] addresses human KATPem (human SUR1-human Kir6.2 fusion construct) (human). The data set is described as follows: cryo-EM structure.
The data set “cryo-EM structure” deals with the molecule itself. The data set is described as follows: cryo-EM structure.

Regarding “human KATPem (human SUR1-human Kir6.2 fusion construct) (complex)”, in data set [1], the stoichiometry N worked out at 4.

B1: human Kir6.2 (natural protein, UniProt Q14654 1-390, looked up)
chain: MLSRKGIIPEEYVLTRLAEDPAKPRYRARQRRARFVSKKGNCNVAHKNIREQGRFLQDVFTTLVDLKWPHTLLIFTMSFLCSWLLFAMAWWLIAFAHGDLAPSEGTAEPCVTSIHSFSSAFLFSIEVQVTIGFGGRMVTEECPLAILILIVQNIVGLMINAIMLGCIFMKTAQAHRRAETLIFSKHAVIALRHGRLCFMLRVGDLRKSMIISATIHMQVVRKTTSPEGEVVPLHQVDIPMENGVGGNSIFLVAPLIIYHVIDANSPLYDLAPSDLHHHQDLEIIVILEGVVETTGITTQARTSYLADEILWGQRFVPIVAEEDGRYSVDYSKFGNTVKVPTPLCTARQLDEDHSLLEALTLASARGPLRKRSVPMAKAKPKFSISPDSLS
B1: in the data set “cryo-EM structure”, the “stoichiometry N” value is 4.
